# Results: US20250327097A1, “ORGANISMS PRODUCING LESS CROTONIC ACID” (Global Bioenergies, priority 2021, published 2025)
# Positions count from the first letter of the chain named. Numbers in names are those of the source.
# B1: I283T-N285P-N287T-Q290E-S322T-N388M-K394R-C430A-i430aR-L432F-L434W-S436N-dG462 (protein)
# chain: MFLKSLREQINLLKRQGDLRIINRPVDSYLEAAAIIRRSTETKAPVPLMTNIKGYPGCSIVGGLAALSSNPEYPLSRVAMSLGLSTTASAQSIVQYLIDGLKKTPYLPVEIDSNSAPCKQNILRGEDASLAHFPIPQVHQHDGNRYVNTWGVFIVESPDGQWCNWSIQRVQYLNDRQMIALVFPSQHISDIWEEWVKIGKPMPYALVQGCEPIVPYIAGLPLLERNVNEAEYIGALYGKGIEVVKCETHDLRVPASSEVVIEGYFAITREGVEGPFGEFAGYTPPETSLEPILSITAISWQDDPIWPVVAEGKPVDEYHTCTGIGDAAAIQNVLLTANLPVSFVWVPLYSACHLMIVSINRHWRQTHPDLTSEQLTKKVGDVIHQTRMSIKLPRIVVLDDDVDPADTESLLWALATRIHPERKRYFYESAIFPWLNCYSEEERHNRKGKRVIIDALLPENHGAISSFDYAYPDDIKQRVLMHWETDFSHD
# B2: I283T-N285P-N287T-Q290E-S322T-N388M-K394R-C430A-L432F-L434W-S436N-i447aL-dG462 (protein)
# chain: B1 chain
# B3: I283T-N285P-N287T-Q290E-S322T-N388M-K394R-C430A-L432F-L434W-S436N-i448aS-dG462 (protein)
# chain: B1 chain
# B4: I283T-N285P-N287T-Q290E-S322T-N388M-K394R-C430A-L432F-L434W-S436N-i444aP-dG462 (protein)
# chain: B1 chain
# B5: I283T-N285P-N287T-Q290E-S322T-N388M-K394R-C430A-L432F-L434W-S436N-i444aK-dG462 (protein)
# chain: B1 chain
# B6: I283T-N285P-N287T-Q290E-S322T-N388M-K394R-C430A-L432F-L434W-S436N-i447aK-dG462 (protein)
# chain: B1 chain
# B7: I283T-N285P-N287T-Q290E-S322T-N388M-K394R-C430A-i431aL-L432F-L434W-S436N-dG462 (protein)
# chain: B1 chain
# B8: I283T-N285P-N287T-Q290E-S322T-N388M-K394R-C430A-L432F-L434W-S436N-i438aD-dG462 (protein)
# chain: B1 chain
# B9: I283T-N285P-N287T-Q290E-S322T-N388M-K394R-C430A-L432F-L434W-S436N-i444aT-dG462 (protein)
# chain: B1 chain
# B10: I283T-N285P-N287T-Q290E-S322T-N388M-K394R-C430A-L432F-L434W-S436N-i444aR-dG462 (protein)
# chain: B1 chain
# B11: I283T-N285P-N287T-Q290E-S322T-N388M-K394R-C430A-L432F-L434W-S436N-i444aN-dG462 (protein)
# chain: B1 chain
# B12: V382L-N388M-K394R-C430N-L432F-L434W-S436N (protein)
# chain: B1 chain with T283I, P285N, T287N, E290Q, T322S, V382L, A430N
# B13: I283T-N285P-N287T-Q290E-S322T-N388M-K394R-C430A-L432F-L434W-S436N-i443aR-dG462 (protein)
# chain: B1 chain
# B14: I283T-N285P-N287T-Q290E-S322T-N388M-K394R-C430A-i430aH-L432F-L434W-S436N-dG462 (protein)
# chain: B1 chain
# B15: I283T-N285P-N287T-Q290E-S322T-N388M-K394R-C430A-i430aQ-L432F-L434W-S436N-dG462 (protein)
# chain: B1 chain
# B16: I283T-N285P-N287T-Q290E-S322T-N388M-K394R-C430A-L432F-L434W-S436N-i444aH-dG462 (protein)
# chain: B1 chain
# B17: I283T-N285P-N287T-Q290E-S322T-N388M-K394R-C430A-L432F-L434W-S436N-i444aE-dG462 (protein)
# chain: B1 chain
# B18: V382A-N388M-K394R-C430N-L432F-L434W-S436N (protein)
# chain: B1 chain with T283I, P285N, T287N, E290Q, T322S, V382A, A430N
# B19: I283T-N285P-N287T-Q290E-S322T-N388M-K394R-C430A-i431aG-L432F-L434W-S436N-dG462 (protein)
# chain: B1 chain
# B20: I283T-N285P-N287T-Q290E-S322T-N388M-K394R-C430A-L432F-L434W-S436N-i445aQ-dG462 (protein)
# chain: B1 chain
# B21: I283T-N285P-N287T-Q290E-S322T-N388M-K394R-C430A-L432F-L434W-S436N-i443aL-dG462 (protein)
# chain: B1 chain
# B22: I283T-N285P-N287T-Q290E-S322T-N388M-K394R-C430A-L432F-L434W-S436N-i444aV-dG462 (protein)
# chain: B1 chain
# B23: I283T-N285P-N287T-Q290E-S322T-N388M-K394R-C430A-L432F-L434W-S436N-i447aP-dG462 (protein)
# chain: B1 chain
# B24: I283T-N285P-N287T-Q290E-S322T-N388M-K394R-C430A-L432F-L434W-S436N-i444aL-dG462 (protein)
# chain: B1 chain
# B25: I283T-N285P-N287T-Q290E-S322T-N388M-K394R-C430A-L432F-L434W-S436N-i443aT-dG462 (protein)
# chain: B1 chain
# B26: N388M-K394R-S429D-C430N-L432F-L434W-S436N (protein)
# chain: B1 chain with T283I, P285N, T287N, E290Q, T322S, S429D, A430N
# B27: I283T-N285P-N287T-Q290E-S322T-N388M-K394R-C430A-L432F-L434W-S436N-i444aS-dG462 (protein)
# chain: B1 chain
# B28: I283T-N285P-N287T-Q290E-S322T-N388M-K394R-C430A-i430aL-L432F-L434W-S436N-dG462 (protein)
# chain: B1 chain
# B29: I283T-N285P-N287T-Q290E-S322T-N388M-K394R-C430A-L432F-L434W-S436N-i447aY-dG462 (protein)
# chain: B1 chain
# B30: I283T-N285P-N287T-Q290E-S322T-N388M-K394R-C430A-i430aI-L432F-L434W-S436N-dG462 (protein)
# chain: B1 chain
# B31: I283T-N285P-N287T-Q290E-S322T-N388M-K394R-C430A-L432F-L434W-S436N-i444aG-dG462 (protein)
# chain: B1 chain
# B32: I283T-N285P-N287T-Q290E-S322T-N388M-K394R-C430A-L432F-L434W-S436N-i443aV-dG462 (protein)
# chain: B1 chain
# System: 3-methylcrotonic acid
# Type: biochemical, Yersinia frederiksenii
# Parameters: key: “+” representing a low increase in activity; “++++” representing a high increase in activity
row,Molecule,Activity relative to WT
1,B1,++++
2,B2,++++
3,B3,++++
4,B4,++++
5,B5,++++
6,B6,++++
7,B7,++++
8,B8,++++
9,B9,++++
10,B10,++++
11,B11,++++
12,B12,+
13,B13,++++
14,B14,++++
15,B15,++++
16,B16,++++

row,Molecule,Activity relative to WT
1,B17,++++
2,B18,+
3,B19,++++
4,B20,++++
5,B21,++++
6,B22,++++
7,B23,++++
8,B24,++++
9,B25,++++
10,B26,+
11,B27,++++
12,B28,++++
13,B29,++++
14,B30,++++
15,B31,++++
16,B32,++++
